Residue numbers refer to the chain shown, from its start.
T1: IL-16 (Homo sapiens, UniProt Q14005)
T1 construct: Recombinant human IL-16 corresponding to the 121 C-terminal amino biologically active cytokine cleaved from natural pro-IL-16; polyhistidine (pET-30 LIC) (N, cleaved yes); made in house; host or cells: E. coli
T1 sequence (Q14005 1212-1332): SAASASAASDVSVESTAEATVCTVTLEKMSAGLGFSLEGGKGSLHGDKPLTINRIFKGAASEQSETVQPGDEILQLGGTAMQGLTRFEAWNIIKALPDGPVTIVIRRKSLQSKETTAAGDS

T2: natural and recombinant human IL-16 (Homo sapiens, UniProt Q14005)
T2 sequence (Q14005 1212-1332 limits assumed): T1 sequence (Q14005 1212-1332)

T3: murine IL-16 (Mus musculus, UniProt O54824)
T3 sequence (O54824 1205-1322 T1262D/E1263R/Q1264T limits assumed): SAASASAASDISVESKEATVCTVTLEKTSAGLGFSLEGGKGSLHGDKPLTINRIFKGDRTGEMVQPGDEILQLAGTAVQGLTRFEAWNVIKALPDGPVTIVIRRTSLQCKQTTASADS

B1: N-22: rIL-16 construct with deletion of 22 N-terminal amino acids (protein)
chain: TVTLEKMSAGLGFSLEGGKGSLHGDKPLTINRIFKGAASEQSETVQPGDEILQLGGTAMQGLTRFEAWNIIKALPDGPVTIVIRRKSLQSKETTAAGDS
B2: C-16: rIL-16 mutant terminating at Ile^105, deleting RRKS and succeeding downstream residues (protein)
chain: SAASASAASDVSVESTAEATVCTVTLEKMSAGLGFSLEGGKGSLHGDKPLTINRIFKGAASEQSETVQPGDEILQLGGTAMQGLTRFEAWNIIKALPDGPVTIVI
B3: Arg^107 alone: rIL-16 point mutation Arg^107 to alanine (protein)
chain: T1 sequence (Q14005 1212-1332) with R107A
B4: native rIL-16: Recombinant human IL-16, 121 C-terminal amino acids of pro-IL-16, produced in E. coli (protein)
chain: T1 sequence (Q14005 1212-1332)
B5: Arg^106 alone: rIL-16 point mutation Arg^106 to alanine (protein)
chain: T1 sequence (Q14005 1212-1332) with R106A
B6: Arg^106 plus Arg^107: rIL-16 point mutation Arg^106 plus Arg^107 to alanine (protein)
chain: T1 sequence (Q14005 1212-1332) with R106A, R107A
B7: N-12: rIL-16 construct with deletion of 12 N-terminal amino acids (protein)
chain: VESTAEATVCTVTLEKMSAGLGFSLEGGKGSLHGDKPLTINRIFKGAASEQSETVQPGDEILQLGGTAMQGLTRFEAWNIIKALPDGPVTIVIRRKSLQSKETTAAGDS
B8: C-12: rIL-16 mutant with deletion of 12 C-terminal residues, retaining the RRKS motif (protein)
chain: SAASASAASDVSVESTAEATVCTVTLEKMSAGLGFSLEGGKGSLHGDKPLTINRIFKGAASEQSETVQPGDEILQLGGTAMQGLTRFEAWNIIKALPDGPVTIVIRRKS

Assays:
[1] = target: T1, IL-16; assay: Modified Boyden chamber chemotaxis assay: inhibition of IL-16-stimulated T lymphocyte motility; assay type: cell-based; details: human T lymphocytes; rIL-16 10^-9, 10^-10 or 10^-11 M; peptide 10 μg/ml; 4 h
Method: (§1) The mononuclear cell layer was washed with medium 199 (M. A. Bioproducts, Walkersville, Md.) supplemented with 0.4% bovine serum albumin, 25 mM HEPES buffer, and 100 U/ml of penicillin and 100 μg/ml streptomycin (M199-HPS). Samples were enriched for T lymphocytes by nylon wool adherence as described (Julius, et al., Eur. J. Immunol. 3:645, 1973). The nonadherent cells were >95% CD3^+ as determined by flow cytometry.
Recombinant human IL-16 corresponding to the 121 C-terminal amino biologically active cytokine cleaved from natural pro-IL-16 was produced in E. coli as a polyhistidine fusion protein using the expression vector pET-30 LIC (Novagen, Madison, Wis.). Following lysis of transformed bacteria, the protein was purified by metal chelation chromatography and the N-terminal polyhistidine tag was removed by cleavage with enterokinase.
A series of oligopeptides derived from the 16 C-terminal of human IL-16 residues were prepared (FIG. 1) and tested for their ability to […] the T lymphocyte motility using a modified Boyden chemotaxis chamber assay.
Human T lymphocytes were loaded in the upper wells, and rIL-16 at concentrations of 10^−9 M, 10^−10 M or 10^−11 M was loaded in the lower wells, in the presence or absence of two 8-mer peptides corresponding to amino acids Arg^106 to Lys^113 (SEQ ID NO:24), and Glu^114 to Ser^121 (SEQ ID NO:46) of IL-16. […] To further define the residues mediating inhibition, the eight residue sequence from Arg^106 to Lys^113 was divided into RRKS (SEQ ID NO:2) and LQSK (SEQ ID NO:48).

[2] = tested on: Leu 3a mAb; assay: Chemotaxis assay: T cell migration in response to anti-CD4 mAb Leu 3a with peptide; assay type: cell-based; details: Leu 3a 0.5, 1.0, 5.0 μg/ml; peptide 10 μg/ml
Method: (§2) Cells were suspended (5×10^6 cells/ml) in M199-HPS and loaded into the upper wells, separated by an 8 μm pore size nitrocellulose membrane from lower wells. […] After a 4 h incubation at 37° C., the membranes were removed and stained with hematoxylin, dehydrated by sequential washes in ethanol and propanol, then washed in xylene to clarify the filter for cell counting by light microscopy. Cell migration was quantified by counting the number of cells in the filter that had moved beyond a depth of 50 μm in five separate fields in duplicate wells for all conditions. Cell counts were compared with unstimulated control cell migration which was normalized to 100%. Results are expressed as mean % control migration and the data analyzed for statistical significance (P<0.05) by Student=s t test.

[3] = target: HIV-1 gp120 (strain HIV-13B) (Human immunodeficiency virus type 1 group M subtype B, UniProt P04578); details: gp120 0.5, 1.0, 5.0 μg/ml; peptide 10 μg/ml
Method: as §2

[4] = target: T2, natural and recombinant human IL-16; details: cited from earlier work
[5] = target: T3, murine IL-16; details: cited from earlier work
[6] = tested on: human T lymphocytes; assay: Chemotaxis assay: chemoattractant activity of mutated rIL-16; assay type: cell-based; details: 10^-8 to 10^-11 M
Method: as §1
The native IL-16 expression vector (pET-30/L-16^121) was used as a template for PCR mutagenesis to create four recombinant IL-16 (rIL-16) mutant constructs with progressive four amino acid deletions at the C-terminus (C-4 to C-16), as well as deletions of 12 or 22 N-terminal residues. Two double deletion constructs lacking the first 12 or 22 N-terminal residues as well as the last 16 C-terminal residues of IL-16 were also produced. Point mutations in C-terminal residues of rIL-16 were generated by site-directed mutagenesis using the Stratagene Quick Change Kit (Stratagene, La Jolla, Calif.) according to the manufacturer=s specifications. The point mutations included alanine substitution for Arg^106, Arg^107, and Arg^106 plus Arg^107.
IL-16 mutant constructs were created with progressive deletions of 4 C-terminal amino acids from C-4 through C-16 (FIG. 4). The C-12 construct terminates at Ser^108, retaining the RRKS motif. The C-16 construct terminates at Ile^105, deleting RRKS and succeeding downstream residues. These mutant IL-16 molecules were tested in chemotaxis assays.

[7] = tested on: Mixed Lymphocyte Reaction; assay: Inhibition of the one way mixed lymphocyte reaction (MLR); assay type: cell-based, human; details: for capacity to inhibit the MLR: responder T lymphocytes pre-treated, 10^-8 to 10^-11 M
Method: Stimulator cells for mixed lymphocyte reactions were prepared by incubating PBMC (10^6/ml) with 25 μg/ml mitomycin C for 30 min. The cells were then washed four times with RPMI 1640 medium supplemented with 25 mM HEPES buffer, 100 U/ml penicillin, and 100 μg/ml streptomycin (RPMI 1640-HPS), then resuspended in RPMI 1640-HPS supplemented with 10% fetal bovine serum (complete medium) at 10^6 cells/ml. Responder cells were prepared from an unrelated donor, suspended in complete medium at 10^6 cells/ml, and pre-incubated (1 h, 37° C.) with control buffer, or with rIL-16 or mutated rIL-16 constructs (10^−9 M to 10^−11 M). Stimulator cells were then added (1:1) and the cell mixtures were transferred in quadruplicate to 96-well round-bottom plates. Cell cultures were pulsed with [^3H] thymidine on day 5, harvested with a Titertek cell harvester, and counted in a Becton Dickinson scintillation counter on day 6. Results are expressed as mean % cpm above background. SEM.
To determine whether other biological activities of IL-16 are mediated by the C-terminal domain, the native and mutated rIL-16 constructs were tested for their capacity of inhibiting the one way MLR. Responder T lymphocytes were pre-treated with rIL-16 or control buffer, then cultured with mitomycin C-treated stimulator PBMC from an unrelated donor. Pre-treatment with 10^−8 M native rIL-16 reduced thymidine incorporation on day 6 by nearly 70%, compared with untreated cells.

Molecule | inhibition of IL-16-stimulated T cell migration [1] | chemoattractant activity of mutated rIL-16 [6] | further results
ETTAAGDS [SEQ ID NO:46] | only the Arg^106 to Lys^113 peptide (SEQ ID NO:24) inhibited IL-16 |  | 
LQSK | Only RRKS (SEQ ID NO:2) inhibited IL-16 chemoattractant activity |  | 
RRAS | inhibited IL-16 as effectively as the native RRKS |  | 
RRKA | inhibited IL-16 as effectively as the native RRKS |  | 
RRKS | inhibited IL-16 chemoattractant activity |  | blocking of cell migration in response to divalent anti-CD4 mAb Leu 3a [2]: not blocked; blocking of cell migration in response to HIV-1 gp120 [3]: not blocked
RRKSLQ | inhibited IL-16-stimulated T cell migration |  | 
RRKSLQSK [SEQ ID NO:24] | inhibited IL-16 |  | 
RRKSLQSKETTAAGDS [Arg106 to Ser121, synthetic oligopeptide corresponding to the 16 C-terminal amino acids of human IL-16] |  |  | inhibition of chemoattractant activity of natural and recombinant human IL-16 [4]: inhibit the chemoattractant activity; inhibition of chemoattractant activity of murine IL-16 [5]: inhibit the chemoattractant activity
RSQRLK [SEQ ID NO:47, reference compound] | no inhibitory activity |  | 
B1 |  | comparable to native IL-16 | capacity to inhibit the MLR [7]: reduced but not eliminated
B2 |  | completely eliminated the chemoattractant activity | shift of the dose response of MLR inhibition versus native rIL-16 [7]: ~1 log; capacity to inhibit the MLR [7]: nearly as active as native rIL-16
B3 |  | completely abrogated chemoattractant activity | 
B4 |  |  | reduction of thymidine incorporation in MLR compared with untreated cells ([7]; pre-treatment with 10^-8 M, day 6): ~70%
B5 |  | retained full activity | 
B6 |  | completely abrogated chemoattractant activity | 
B7 |  | comparable to native IL-16 | capacity to inhibit the MLR [7]: reduced but not eliminated
B8 |  | active as native rIL-16 | 

— US7608691B2, “Antibodies against IL-16 antagonist peptides” (Trustees of Boston University, priority 1999, dated 2009)
